In patent US20220220200A1 (NANJING IASO BIOTECHNOLOGY, published 2022):

T1: Biotinylated Human BCMA/TNFRSF17 Protein, Fc Tag, Avi Tag (BCMA-hFc-Bio) (human, UniProt Q02223 1-54, biotinylated (Avitag))
T1 construct: Bought protein; also called control antigen BCMA; unrelated antigen BCMA; not shown: Fc tag (hFc) and Avi tag
T1 sequence (looked up): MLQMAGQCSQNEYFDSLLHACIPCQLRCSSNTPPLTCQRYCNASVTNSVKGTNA


What was measured:
[1] = biological target: T2, Streptavidin (UniProt P22629 37-163, limits assumed); test: phage ELISA, streptavidin-coated plate
T2 construct: Plate coating in the phage ELISA, tested as a control antigen; also called Strepavidin
Method: (§1) In ELISA preliminary screening, the streptavidin-biotin binding allowed the biotinylated target protein (CD19-hFc-Bio) and the control protein (BCMA-hFc-Bio) to be closer to native antigen conformation in the reaction solution. Clones that only bound to CD19-hFc-Bio but not to BCMA-hFc-Bio and streptavidin were considered specific. The FACS preliminary screening was performed using a cell line Raji with high expression of CD19 and Raji-CD19ko with knockout of CD19 molecules, and clones that only bind to Raji cells but not to Raji-CD19ko cells were considered specific. Through the two preliminary screenings based on ELISA and FACS respectively, we could obtain candidate antibodies that can not only bind to the recombinantly expressed CD19 protein but also recognize the native CD19 molecules on the cell surface for further screening.
(§2) Monoclonal antibodies were randomly selected from the enriched phage antibody pool, packaged into phages, and the binding of the monoclonal phage to CD19-hFc-Bio protein and BCMA-hFc-Bio protein was detected by phage ELISA to find CD19-specific phage antibody clones. Control 1 is FMC-63 ([…] anti-human CD19 phage antibody clone); and control 2 is non-CD19-bound scFv phage antibody clone. […]

[2] = biological target: T1, Biotinylated Human BCMA/TNFRSF17 …; test: phage ELISA, biotinylated antigen on streptavidin plate
Method: as §1, §2

T2 sequence (P22629 37-163 limits assumed): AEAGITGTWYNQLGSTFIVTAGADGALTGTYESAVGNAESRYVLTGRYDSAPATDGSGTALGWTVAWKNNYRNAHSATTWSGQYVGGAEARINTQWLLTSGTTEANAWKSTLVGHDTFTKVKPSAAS

Binder | binding result [1] | binding result [2]
#78 scFv phage antibody clone (scFv, The phage coat fusion is not described; also called clone #78; phage #78) scFv: QAVLTQPPSVSEAPRQRVTISCSGSSSNIGNNAVSWYQQLPGKAPKLLIYYDDLLPSGVSDRFSGSKSGTSASLAISGLQSEDEADYYCAAWDDSLNGWVFGGGTKVTVLGSRGGGGSGGGGSGGGGSLEEVQLVQSGAEVKKPGESLKISCKGSGYSFTSYWIGWVRQMPGKGLEWMGIIYPGDSDTRYSPSFQGQVTISADKSISTAYLQWSSLKASDTAMYYCARLSYSWSSWYWDFWGQGTLVTVSS | no binding | no binding
#62 scFv phage antibody clone (scFv, The phage coat fusion is not described; also called clone #62; phage #62) scFv: QSVVTQPPSVSGAPGQRVTISCTGSSSNIGAGYDVHWYQQLPGTAPKLLIYENTNRPSGVPDRFSGSKSGTSASLAITGLQAEDEADYYCQSYDSSLSGWRVFGGGTKLTVLGSRGGGGSGGGGSGGGGSLEMAEVQLVQSGAEVKKPGESLKISCKGSGYSFTNSWIGWVRQMPGKGLEWMGLIYPDDSDTRYSPSFQGQVTISADSAINTAYLQWSSLKASDTAMYYCARQSTYIYGGYYDTWGQGTLVTVSS | no binding | no binding
